Reference: patent publication US20150274781A1 (UNIVERSITAET LEIPZIG, published 2015)
Like-named read-outs stand apart in the source and are kept apart here. Where no end group is shown, it is not given here. [ ]: non-standard residue; d: D form. d1Nal = N[C@H](Cc1cccc2ccccc12)C(=O)O; Phg = N[C@H](C(=O)O)c1ccccc1; Nva = CCC[C@H](N)C(=O)O

B1: K-(D-1-Nal)-(L-Phg)-wLL-NH2 (peptide)
peptide: K[d1Nal][Phg][dW]LL-NH2
modifications: N-terminus assumed
SMILES: CC(C)C[C@H](NC(=O)[C@H](CC(C)C)NC(=O)[C@@H](Cc1c[nH]c2ccccc12)NC(=O)[C@@H](NC(=O)[C@@H](Cc1cccc2ccccc12)NC(=O)[C@@H](N)CCCCN)c1ccccc1)C(N)=O
B2: KwFwLL-NH2 (peptide)
peptide: K[dW]F[dW]LL-NH2
modifications: N-terminus assumed
SMILES: CC(C)C[C@H](NC(=O)[C@H](CC(C)C)NC(=O)[C@@H](Cc1c[nH]c2ccccc12)NC(=O)[C@H](Cc1ccccc1)NC(=O)[C@@H](Cc1c[nH]c2ccccc12)NC(=O)[C@@H](N)CCCCN)C(N)=O
B3: K-(D-1-Nal)-(L-tBf)-wLL-NH2 (peptide)
peptide: KXXXLL
modifications: 1-naphthyl-D-alanine (D-1-Nal) at 2; tert-butyl-L-phenylalanine (L-tBf) at 3; D-Trp at 4; C-terminal amide
B4: K-(D-1-Nal)-(L-Cha)-wLL-NH2 (peptide)
peptide: KXXXLL
modifications: 1-naphthyl-D-alanine (D-1-Nal) at 2; 3-cyclohexyl-L-alanine (L-Cha) at 3; D-Trp at 4; C-terminal amide
B5: K-(D-1-Nal)-(L-Nva)-wLL-NH2 (peptide)
peptide: K[d1Nal][Nva][dW]LL-NH2
modifications: N-terminus assumed
SMILES: CCC[C@H](NC(=O)[C@@H](Cc1cccc2ccccc12)NC(=O)[C@@H](N)CCCCN)C(=O)N[C@H](Cc1c[nH]c2ccccc12)C(=O)N[C@@H](CC(C)C)C(=O)N[C@@H](CC(C)C)C(N)=O

Assays:
Assay in all cases: cell-based or functional assay
human ghrelin receptor [1] = biological target: T1, human ghrelin receptor (human, UniProt Q92847 1-366)
T1 sequence (Q92847 whole entry): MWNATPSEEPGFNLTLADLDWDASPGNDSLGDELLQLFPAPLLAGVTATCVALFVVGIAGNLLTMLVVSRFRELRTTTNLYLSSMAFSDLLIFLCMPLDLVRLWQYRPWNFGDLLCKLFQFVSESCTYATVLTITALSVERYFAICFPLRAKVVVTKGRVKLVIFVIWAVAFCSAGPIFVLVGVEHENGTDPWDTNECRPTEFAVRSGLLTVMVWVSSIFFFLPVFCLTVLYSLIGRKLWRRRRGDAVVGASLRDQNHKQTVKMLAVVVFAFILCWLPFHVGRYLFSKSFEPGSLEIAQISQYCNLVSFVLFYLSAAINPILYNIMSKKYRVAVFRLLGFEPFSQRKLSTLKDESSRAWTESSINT

human ghrelin receptor [2] = biological target: T1, human ghrelin receptor; remark: listed apart in the source
human ghrelin receptor [3] = biological target: T1, human ghrelin receptor; remark: listed apart in the source

Row | Binder | EC50, inverse agonistic activity, inositol trisphosphate turnover assay in COS-7 cells transfected with the ghrelin receptor (human ghrelin receptor [2]) [nM] | Emax [Δ %], inverse agonistic activity, inositol trisphosphate turnover assay (human ghrelin receptor [2]) | EC50, inverse agonistic activity, inositol trisphosphate turnover assay in COS-7 cells transfected with the ghrelin receptor (human ghrelin receptor [3]) [nM] | x-fold (EC50) compared to K-(D-1-Nal)-FwLL-NH2 (human ghrelin receptor [3]) [fold] | Emax [Δ %], inverse agonistic activity, inositol trisphosphate turnover assay (human ghrelin receptor [3]) | other results
1 | KXFXLL (D-Trp at 2; 2-naphthyl-D-alanine (D-2-Nal) at 4; C-terminal amide) [KwF-(D-2-Nal)-LL-NH2] | – | – | – | – | – | EC50, agonistic activity, inositol trisphosphate turnover assay in COS-7 cells transfected with the ghrelin receptor (human ghrelin receptor [1]): 12.6 nM
2 | KXFXLL (2-naphthyl-D-alanine (D-2-Nal) at 2; D-Trp at 4; C-terminal amide) [K-(D-2-Nal)-FwLL-NH2] | 161 | 66 Δ % | – | – | – | –
3 | B1 | – | – | > 1000 | > 290 | – | –
4 | KXFXLL (3,3-diphenyl-D-alanine (D-Dip) at 2; D-Trp at 4; C-terminal amide) [K-(D-Dip)-FwLL-NH2] | 13.1 | 87 Δ % | – | – | – | –
5 | B2 | 45.6 | 37 Δ % | – | – | – | –
6 | B3 | – | – | 124 | 36.5 | 84 Δ % | x-fold (Emax) compared to K-(D-1-Nal)-FwLL-NH2 (human ghrelin receptor [3]): 1.3 fold
7 | KXFXLL (D-Phe at 2; D-Trp at 4; C-terminal amide) [K-(D-Phe)-FwLL-NH2] | 241 | 62 Δ % | – | – | – | –
8 | KXFXLL (4-benzoyl-D-phenylalanine (D-Bpa) at 2; D-Trp at 4; C-terminal amide) [K-(D-Bpa)-FwLL-NH2] | 169 | 67 Δ % | – | – | – | –
9 | B4 | – | – | 96.8 | 28.5 | 85 Δ % | x-fold (Emax) compared to K-(D-1-Nal)-FwLL-NH2 (human ghrelin receptor [3]): 1.3 fold
10 | KXFXLL (D-Trp at 2; 1-naphthyl-D-alanine (D-1-Nal) at 4; C-terminal amide) [KwF-(D-1-Nal)-LL-NH2] | – | – | – | – | – | EC50, agonistic activity, inositol trisphosphate turnover assay in COS-7 cells transfected with the ghrelin receptor (human ghrelin receptor [1]): 17.9 nM
11 | KXFXLL (beta-(3-benzothienyl)-D-alanine (D-Bth) at 2; D-Trp at 4; C-terminal amide) [K-(D-Bth)-FwLL-NH2] | – | 81 Δ % | – | – | – | –
12 | KXFXLL (4,4'-biphenyl-D-alanine (D-Bip) at 2; D-Trp at 4; C-terminal amide) [K-(D-Bip)-FwLL-NH2] | 184 | 82 Δ % | – | – | – | –
13 | KXFXLL (tert-butyl-D-phenylalanine (D-tBf) at 2; D-Trp at 4; C-terminal amide) [K-(D-tBf)-FwLL-NH2] | 624 | 76 Δ % | – | – | – | –
14 | KXFXLL (1-naphthyl-D-alanine (D-1-Nal) at 2; D-Trp at 4; C-terminal amide) [K-(D-1-Nal)-FwLL-NH2] | 3.4 | 64 Δ % | 3.4 | – | 64 Δ % | –
15 | B5 | – | – | 498 | 146 | 71 Δ % | x-fold (Emax) compared to K-(D-1-Nal)-FwLL-NH2 (human ghrelin receptor [3]): 1.1 fold
16 | KXXXLL (1-naphthyl-D-alanine (D-1-Nal) at 2; D-Phe at 3; D-Trp at 4; C-terminal amide) [K-(D-1-Nal)-(D-Phe)-wLL-NH2] | – | – | 120 | 35.2 | 58 Δ % | x-fold (Emax) compared to K-(D-1-Nal)-FwLL-NH2 (human ghrelin receptor [3]): 0.9 fold
